Assay results published in PMC8602277, “Crystal structures of the elusive Rhizobium etliL-asparaginase reveal a peculiar active site” (Nature Communications, 2021).

How the values were obtained:
[1] = substrate: NC(=O)C[C@H](N)C(=O)O; assay: ITC, multiple injection mode, Michaelis-Menten fit; type: biochemical, Rhizobium etli; conditions: 30 mM phosphate pH 9.0, 37 °C, Zn-containing native enzyme, Hill coefficient 1.6 by separate Hill fit
[2] = target: the molecule itself; assay: SEC; analytical Superdex75 10/300 GL column, 50 mM phosphate buffer pH 7.5 with 20 mM NaCl, room temperature
[3] = target: the molecule itself; assay: crystal structure; WT ReAV in four crystal forms (OP, MP1, MP2, MC) plus the S-SAD START data set; one or two dimers in the asymmetric unit; crystals grown at 19 °C by hanging drop vapor diffusion

| Protein | stoichiometry N [2] | other results |
| --- | --- | --- |
| ReAV (inducible R. etli L-asparaginase, AnsA) (Rhizobium etli CFN 42) (protein, full-length wild type, 367 residues, expressed in E. coli BL21 STAR (DE3) from pET151-D-TOPO, N-terminal His6-tag cut with TEV protease; homodimer, one Zn2+ per subunit) MTPSEDFVVTDRGGIVENSHRVHAAVVDAKGRLLYALGNPTRMTLARSAAKPAQALAILETEGVAGYGFDDADIALMCASHSSEDRHIARTRAMLSKIKAEEADLRCGGHPSLSEMVNRSWIKQDFIPTAVCSNCSGKHVGMLAGARAIGAGTDGYHLPDHPMQGRVKRTVAELCDLDAGDVEWGTDGCNLPTPAFPLDRLGRIYAKLASAADGSDAGEGQSTRCAALAHIFRAMARHPEMVAGEGRYCTMLMRAFDGALVGKLGADASYAIGVRASDATRQLGTDGALGISVKIEDGNLEMLYAVVTELLERLGIGSPDVRSQLASFHHPQRVNTMGVTTGGVSFPFKLRGSKSNVDDPRLAAVAR |  | Km [1]: 4.2 ± 0.3 mM; kcat [1]: 438 ± 32 s⁻¹ |
| ReAV S80A mutant (enzyme, Rhizobium etli (strain CFN 42), inducible L-asparaginase ReAV (AnsA) of Rhizobium etli strain CFN 42; printed length 367 residues; CD spectra indicate incorrect folding or strong structural distortion; source: E. coli BL21 STAR (DE3), mostly in inclusion bodies, soluble part purified as the WT protein; not shown: His6, N-terminal, cleaved) MTPSEDFVVTDRGGIVENSHRVHAAVVDAKGRLLYALGNPTRMTLARSAAKPAQALAILETEGVAGYGFDDADIALMCAAHSSEDRHIARTRAMLSKIKAEEADLRCGGHPSLSEMVNRSWIKQDFIPTAVCSNCSGKHVGMLAGARAIGAGTDGYHLPDHPMQGRVKRTVAELCDLDAGDVEWGTDGCNLPTPAFPLDRLGRIYAKLASAADGSDAGEGQSTRCAALAHIFRAMARHPEMVAGEGRYCTMLMRAFDGALVGKLGADASYAIGVRASDATRQLGTDGALGISVKIEDGNLEMLYAVVTELLERLGIGSPDVRSQLASFHHPQRVNTMGVTTGGVSFPFKLRGSKSNVDDPRLAAVAR | 2 |  |
| ReAV S48A mutant (enzyme, Rhizobium etli (strain CFN 42), inducible L-asparaginase ReAV (AnsA) of Rhizobium etli strain CFN 42; printed length 367 residues; CD spectra indicate incorrect folding or strong structural distortion; source: E. coli BL21 STAR (DE3), mostly in inclusion bodies, soluble part purified as the WT protein; not shown: His6, N-terminal, cleaved) MTPSEDFVVTDRGGIVENSHRVHAAVVDAKGRLLYALGNPTRMTLARAAAKPAQALAILETEGVAGYGFDDADIALMCASHSSEDRHIARTRAMLSKIKAEEADLRCGGHPSLSEMVNRSWIKQDFIPTAVCSNCSGKHVGMLAGARAIGAGTDGYHLPDHPMQGRVKRTVAELCDLDAGDVEWGTDGCNLPTPAFPLDRLGRIYAKLASAADGSDAGEGQSTRCAALAHIFRAMARHPEMVAGEGRYCTMLMRAFDGALVGKLGADASYAIGVRASDATRQLGTDGALGISVKIEDGNLEMLYAVVTELLERLGIGSPDVRSQLASFHHPQRVNTMGVTTGGVSFPFKLRGSKSNVDDPRLAAVAR | 2 |  |
| ReAV K263A mutant (enzyme, Rhizobium etli (strain CFN 42), inducible L-asparaginase ReAV (AnsA) of Rhizobium etli strain CFN 42; printed length 367 residues; source: E. coli BL21 STAR (DE3), purified as the WT protein; not shown: His6, N-terminal, cleaved) MTPSEDFVVTDRGGIVENSHRVHAAVVDAKGRLLYALGNPTRMTLARSAAKPAQALAILETEGVAGYGFDDADIALMCASHSSEDRHIARTRAMLSKIKAEEADLRCGGHPSLSEMVNRSWIKQDFIPTAVCSNCSGKHVGMLAGARAIGAGTDGYHLPDHPMQGRVKRTVAELCDLDAGDVEWGTDGCNLPTPAFPLDRLGRIYAKLASAADGSDAGEGQSTRCAALAHIFRAMARHPEMVAGEGRYCTMLMRAFDGALVGALGADASYAIGVRASDATRQLGTDGALGISVKIEDGNLEMLYAVVTELLERLGIGSPDVRSQLASFHHPQRVNTMGVTTGGVSFPFKLRGSKSNVDDPRLAAVAR | 2 |  |
| ReAV K51A mutant (enzyme, Rhizobium etli (strain CFN 42), inducible L-asparaginase ReAV (AnsA) of Rhizobium etli strain CFN 42; printed length 367 residues; source: E. coli BL21 STAR (DE3), purified as the WT protein; not shown: His6, N-terminal, cleaved) MTPSEDFVVTDRGGIVENSHRVHAAVVDAKGRLLYALGNPTRMTLARSAAAPAQALAILETEGVAGYGFDDADIALMCASHSSEDRHIARTRAMLSKIKAEEADLRCGGHPSLSEMVNRSWIKQDFIPTAVCSNCSGKHVGMLAGARAIGAGTDGYHLPDHPMQGRVKRTVAELCDLDAGDVEWGTDGCNLPTPAFPLDRLGRIYAKLASAADGSDAGEGQSTRCAALAHIFRAMARHPEMVAGEGRYCTMLMRAFDGALVGKLGADASYAIGVRASDATRQLGTDGALGISVKIEDGNLEMLYAVVTELLERLGIGSPDVRSQLASFHHPQRVNTMGVTTGGVSFPFKLRGSKSNVDDPRLAAVAR | 2 |  |
| inducible Rhizobium etli L-asparaginase ReAV, wild type (enzyme, Rhizobium etli (strain CFN 42), Cys249 most likely oxidized, modeled as S-hydroxycysteine in the crystal structures, inducible L-asparaginase ReAV (AnsA) of Rhizobium etli strain CFN 42, encoded on plasmid p42e; printed length 367 residues; also called WT ReAV; AnsA; source: E. coli BL21 STAR (DE3), purified (HisTrap Ni, TEV cleavage, second HisTrap Ni, Superdex 200); not shown: His6, N-terminal, cleaved) MTPSEDFVVTDRGGIVENSHRVHAAVVDAKGRLLYALGNPTRMTLARSAAKPAQALAILETEGVAGYGFDDADIALMCASHSSEDRHIARTRAMLSKIKAEEADLRCGGHPSLSEMVNRSWIKQDFIPTAVCSNCSGKHVGMLAGARAIGAGTDGYHLPDHPMQGRVKRTVAELCDLDAGDVEWGTDGCNLPTPAFPLDRLGRIYAKLASAADGSDAGEGQSTRCAALAHIFRAMARHPEMVAGEGRYCTMLMRAFDGALVGKLGADASYAIGVRASDATRQLGTDGALGISVKIEDGNLEMLYAVVTELLERLGIGSPDVRSQLASFHHPQRVNTMGVTTGGVSFPFKLRGSKSNVDDPRLAAVAR |  | stoichiometry N [3]: 2 |
| ReAV C135A mutant (enzyme, Rhizobium etli (strain CFN 42), inducible L-asparaginase ReAV (AnsA) of Rhizobium etli strain CFN 42; printed length 367 residues; source: E. coli BL21 STAR (DE3), purified as the WT protein; not shown: His6, N-terminal, cleaved) MTPSEDFVVTDRGGIVENSHRVHAAVVDAKGRLLYALGNPTRMTLARSAAKPAQALAILETEGVAGYGFDDADIALMCASHSSEDRHIARTRAMLSKIKAEEADLRCGGHPSLSEMVNRSWIKQDFIPTAVCSNASGKHVGMLAGARAIGAGTDGYHLPDHPMQGRVKRTVAELCDLDAGDVEWGTDGCNLPTPAFPLDRLGRIYAKLASAADGSDAGEGQSTRCAALAHIFRAMARHPEMVAGEGRYCTMLMRAFDGALVGKLGADASYAIGVRASDATRQLGTDGALGISVKIEDGNLEMLYAVVTELLERLGIGSPDVRSQLASFHHPQRVNTMGVTTGGVSFPFKLRGSKSNVDDPRLAAVAR | 2 |  |
